From US20110123554A1 (BIOTEST, published 2011)
Values joined by “and” are separate entries in the source; they are usually repeats but may differ in a detail not shown here. Identical values can stand only once.

What was measured:
[1] = target: T1, CD138 on the cell surface (human, UniProt P18827 23-310); test: cell-based or functional assay
T1 sequence (looked up): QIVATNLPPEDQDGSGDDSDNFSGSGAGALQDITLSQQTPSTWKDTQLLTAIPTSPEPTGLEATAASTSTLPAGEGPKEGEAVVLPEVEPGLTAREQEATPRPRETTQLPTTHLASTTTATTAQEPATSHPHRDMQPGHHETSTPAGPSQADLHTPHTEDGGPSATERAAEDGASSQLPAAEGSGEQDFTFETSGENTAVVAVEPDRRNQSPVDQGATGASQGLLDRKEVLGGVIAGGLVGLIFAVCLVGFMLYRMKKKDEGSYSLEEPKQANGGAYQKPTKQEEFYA

[2] = target: T1, CD138 on the cell surface; test: FACS on CD138+ OPM-2 cells, fluorescence-labelled secondary antibody, mean fluorescence against concentration
Text: The cells were washed and CD138-bound antibody or conjugates were detected using a fluorescence-labeled secondary antibody in FACS analysis. The mean fluorescence measured in these experiments was plotted against the antibody concentration.

[3] = target: T2, Soluble CD138 antigen from U-266 cell culture supernatant, biotinylated (human, UniProt P18827 23-245, limits assumed, biotinylated on primary amino groups with EZ-Link Sulfo-NHS-LC-Biotin); test: BIACORE C, biotinylated soluble CD138 on SA chip, conjugate as analyte; single experiment
T2 construct: Captured on a streptavidin SENSOR CHIP SA for the BIACORE assay; Soluble (shed) form; also called bCD138; biotinylated CD138
T2 sequence (looked up): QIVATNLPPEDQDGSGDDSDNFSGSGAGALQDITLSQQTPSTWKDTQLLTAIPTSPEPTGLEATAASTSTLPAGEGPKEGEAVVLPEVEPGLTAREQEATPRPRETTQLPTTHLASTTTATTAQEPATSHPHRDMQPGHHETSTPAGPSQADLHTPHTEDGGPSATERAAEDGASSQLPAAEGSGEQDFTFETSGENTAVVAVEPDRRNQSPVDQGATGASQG

[4] = target: T2, Soluble CD138 antigen from U-266 cell …; test: BIACORE C, biotinylated soluble CD138 on SA chip, conjugate as analyte; mean of three experiments

Binder | EC50 (read off the curve) [2] [nM] | further results
nBT062-SPDB-DM4 (antibody, human IgG4, kappa, V domains shown, maytansinoid DM4 linked by disulfide bond through SPDB linker; residues carrying the drug not stated) VH: QVQLQQSGSELMMPGASVKISCKATGYTFSNYWIEWVKQRPGHGLEWIGEILPGTGRTIYNEKFKGKATFTADISSNTVQMQLSSLTSEDSAVYYCARRDYYGNFYYAMDYWGQGTSVTVSS VL: DIQMTQSTSSLSASLGDRVTISCSASQGINNYLNWYQQKPDGTVELLIYYTSTLQSGVPSRFSGSGSGTDYSLTISNLEPEDIGTYYCQQYSKLPRTFGGGTKLEIKR |  | Sensitivity IC50 (nM), cell line NCI-H929 (MM) [1]: 0.38 nM
nBT062-SMCC-DM1 (antibody, human IgG4, kappa, V domains shown, maytansinoid DM1 linked through non-cleavable SMCC linker; residues carrying the drug not stated) VH: QVQLQQSGSELMMPGASVKISCKATGYTFSNYWIEWVKQRPGHGLEWIGEILPGTGRTIYNEKFKGKATFTADISSNTVQMQLSSLTSEDSAVYYCARRDYYGNFYYAMDYWGQGTSVTVSS VL: DIQMTQSTSSLSASLGDRVTISCSASQGINNYLNWYQQKPDGTVELLIYYTSTLQSGVPSRFSGSGSGTDYSLTISNLEPEDIGTYYCQQYSKLPRTFGGGTKLEIKR | ~1 | 
B-B4-SPP-DM1 (antibody, V domains shown, maytansinoid DM1 linked through SPP linker; residues carrying the drug not stated, Variable domains as for B-B4 (see its note)) VH: QVQLQQSGSELMMPGASVKISCKATGYTFSNYWIEWVKQRPGHGLEWIGEILPGTGRTIYNEKFKGKATFTADISSNTVQMQLSSLTSEDSAVYYCARRDYYGNFYYAMDYWGQGTSVTVSS VL: DIQMTQSTSSLSASLGDRVTISCSASQGINNYLNWYQQKPDGTVELLIYYTSTLQSGVPSRFSGSGSGTDYSLTISNLEPEDIGTYYCQQYSKLPRTFGGGTKLEIK |  | Kd [3]: 2.6 nM and 2.7 nM; Kd [4]: 2.6 nM
nBT062 (antibody, human IgG4, kappa, V domains shown, also called cB-B4; chimeric B-B4) VH: QVQLQQSGSELMMPGASVKISCKATGYTFSNYWIEWVKQRPGHGLEWIGEILPGTGRTIYNEKFKGKATFTADISSNTVQMQLSSLTSEDSAVYYCARRDYYGNFYYAMDYWGQGTSVTVSS VL: DIQMTQSTSSLSASLGDRVTISCSASQGINNYLNWYQQKPDGTVELLIYYTSTLQSGVPSRFSGSGSGTDYSLTISNLEPEDIGTYYCQQYSKLPRTFGGGTKLEIKR | ~1 | 
nBT062-SPP-DM1 (antibody, human IgG4, kappa, V domains shown, maytansinoid DM1 linked through SPP linker; residues carrying the drug not stated, an average of 3.5 DM1 per antibody is stated for nBT062-DM1 conjugates) VH: QVQLQQSGSELMMPGASVKISCKATGYTFSNYWIEWVKQRPGHGLEWIGEILPGTGRTIYNEKFKGKATFTADISSNTVQMQLSSLTSEDSAVYYCARRDYYGNFYYAMDYWGQGTSVTVSS VL: DIQMTQSTSSLSASLGDRVTISCSASQGINNYLNWYQQKPDGTVELLIYYTSTLQSGVPSRFSGSGSGTDYSLTISNLEPEDIGTYYCQQYSKLPRTFGGGTKLEIKR | ~1 | 
